From patent US20180305465A1 come the findings set out here.

For experiment [1], the target named is cynomolgus CD38 on cynomolgus B cells (PBMCs) (cynomolgus) (UniProt Q5VAN0). As to the kind of experiment: cell-based or functional assay.
The target in experiment [2] is Recombinant cynomolgus CD3ε-Fc (cynomolgus) (UniProt Q95LI5). In words: SPR, SensiQ Pioneer FE; CD3ε-Fc amine coupled to CM5 chip; equilibrium analysis.
Experiment [3] addresses Recombinant human CD3ε-Fc (human). The experiment is described as above.
For experiment [4], the target named is Recombinant minimally biotinylated cynomolgus CD38-His (Sino Biological Inc.) (cynomolgus) (UniProt Q5VAN0). As to the kind of experiment: BLI, Octet HTX; biotinylated CD38-His on streptavidin tips (2 nm), antibody in solution; 1:1 model, kd/ka.
Chain of Recombinant minimally biotinylated cynomolgus CD38-His (Sino Biological Inc.) (cynomolgus) (Q5VAN0 44-301 limits assumed): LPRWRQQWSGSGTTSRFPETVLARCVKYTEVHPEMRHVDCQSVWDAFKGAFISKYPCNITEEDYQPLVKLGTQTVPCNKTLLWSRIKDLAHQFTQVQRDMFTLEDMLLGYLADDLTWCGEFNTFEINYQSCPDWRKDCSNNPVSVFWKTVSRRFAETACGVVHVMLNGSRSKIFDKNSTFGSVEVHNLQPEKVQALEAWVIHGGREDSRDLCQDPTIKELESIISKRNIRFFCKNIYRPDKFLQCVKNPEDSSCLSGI
The target in experiment [5] is Recombinant minimally biotinylated human CD38-His (Fisher Scientific) (human) (UniProt P28907). The experiment is described as above.
Chain of Recombinant minimally biotinylated human CD38-His (Fisher Scientific) (human) (P28907 43-300 limits assumed): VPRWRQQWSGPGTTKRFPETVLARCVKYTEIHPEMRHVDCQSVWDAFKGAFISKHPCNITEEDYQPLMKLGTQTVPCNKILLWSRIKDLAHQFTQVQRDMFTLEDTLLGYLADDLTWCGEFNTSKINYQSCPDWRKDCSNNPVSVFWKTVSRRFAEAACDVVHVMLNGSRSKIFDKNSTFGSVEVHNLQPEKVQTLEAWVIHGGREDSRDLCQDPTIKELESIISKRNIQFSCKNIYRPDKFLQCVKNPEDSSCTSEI
For experiment [6], the target named is Recombinant human CD3ε-Fc (human). As to the kind of experiment: Absolute KD; SPR, Biacore T200, CD3ε-Fc amine coupled to CM5 at lowest usable density; koff/kon, 1:1 global fit.
Chain of Recombinant human CD3ε-Fc (human) (chain, as listed by the source): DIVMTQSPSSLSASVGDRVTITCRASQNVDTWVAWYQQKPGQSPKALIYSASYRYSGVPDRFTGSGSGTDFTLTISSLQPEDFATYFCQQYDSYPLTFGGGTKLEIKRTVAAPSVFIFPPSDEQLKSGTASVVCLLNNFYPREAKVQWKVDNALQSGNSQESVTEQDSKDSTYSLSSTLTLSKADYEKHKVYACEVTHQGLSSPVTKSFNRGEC
Experiment [7] has as its target Recombinant minimally biotinylated cynomolgus CD38-His (Sino Biological Inc.) (cynomolgus) (UniProt Q5VAN0). As to the kind of experiment: Absolute KD; BLI, Octet HTX, CD38-His at five loading levels 0.3-2 nm, plateau of measured KD as loading decreases.
The target in experiment [8] is Recombinant minimally biotinylated human CD38-His (Fisher Scientific) (human) (UniProt P28907). The experiment is described as above.

Chain of cynomolgus CD38 on cynomolgus B cells (PBMCs) (cynomolgus) (Q5VAN0 whole entry): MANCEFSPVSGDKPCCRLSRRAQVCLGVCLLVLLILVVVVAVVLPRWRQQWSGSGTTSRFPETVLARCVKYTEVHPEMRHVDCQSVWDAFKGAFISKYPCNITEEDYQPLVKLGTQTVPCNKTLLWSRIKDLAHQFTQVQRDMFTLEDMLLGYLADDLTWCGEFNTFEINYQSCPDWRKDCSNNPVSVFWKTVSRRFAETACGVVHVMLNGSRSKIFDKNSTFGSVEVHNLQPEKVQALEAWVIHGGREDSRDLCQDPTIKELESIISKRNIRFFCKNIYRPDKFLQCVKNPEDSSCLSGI
Chain of Recombinant cynomolgus CD3ε-Fc (cynomolgus) (Q95LI5 22-117 limits assumed): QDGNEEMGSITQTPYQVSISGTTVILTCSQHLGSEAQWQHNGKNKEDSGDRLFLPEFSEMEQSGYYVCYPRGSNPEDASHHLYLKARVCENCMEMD

“XmAb18968 (412220) (bispecific antibody)”: the Cyno B Cell TDCC EC50 in experiment [1] is 0.082 nM. Moreover, the equilibrium dissociation constant (Kd) in experiment [2] was 33.5 nM; in experiment [3], 29.7 nM; in experiment [4] it was 2.8 nM; in experiment [5], 2.5 nM; in experiment [6], 35.6 nM; in experiment [7] it was 7.5 nM. The Kd in experiment [8] amounted to 8.9 nM.
